Laboratory results published in patent US20140087995A1 (published 2014).
Numbered stars: 1 amine (or outer) side, 2 acyl side, 3 side chain; on linkers, the order of the positions; unused ones are H or OH. Bridge positions count the residues as written; N and C are the ends. Side chains are listed from the residue outwards. Ends that are not written are not given here. * marks the point of attachment. C20 diacid = O=C(O)CCCCCCCCCCCCCCCCCCC(=O)*; γGlu = O=C(O)[C@H](CCC(=O)[*:2])N[*:1]

T1: human calcitonin receptor (human, UniProt P30988 25-474)
T1 sequence (looked up): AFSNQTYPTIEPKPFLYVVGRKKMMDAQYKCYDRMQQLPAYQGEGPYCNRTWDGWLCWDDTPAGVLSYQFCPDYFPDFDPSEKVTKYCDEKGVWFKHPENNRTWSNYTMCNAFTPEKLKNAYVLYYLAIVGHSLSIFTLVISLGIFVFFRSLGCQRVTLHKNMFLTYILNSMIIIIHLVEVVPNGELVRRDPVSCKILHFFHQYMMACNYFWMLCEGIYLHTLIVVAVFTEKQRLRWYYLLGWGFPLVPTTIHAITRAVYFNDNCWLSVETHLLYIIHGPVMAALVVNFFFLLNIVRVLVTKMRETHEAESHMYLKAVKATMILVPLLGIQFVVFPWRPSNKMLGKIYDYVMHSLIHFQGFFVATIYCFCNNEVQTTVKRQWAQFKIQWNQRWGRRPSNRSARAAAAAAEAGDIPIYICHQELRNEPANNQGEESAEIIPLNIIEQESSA

T2: human amylin 3(a) receptor (human calcitonin receptor + RAMP-3) (human, UniProt P30988 25-474; O60896 24-148, limits assumed)
T2 sequence (looked up) 1: T1 sequence (looked up)
T2 sequence (looked up) 2: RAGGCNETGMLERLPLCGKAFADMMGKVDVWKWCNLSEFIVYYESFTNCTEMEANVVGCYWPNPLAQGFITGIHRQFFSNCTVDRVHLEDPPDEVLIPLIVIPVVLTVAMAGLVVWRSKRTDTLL

B1: N^α1-[(4S)-4-carboxy-4-(19-carboxynonadecanoylamino)butanoyl]-[Glu14,Arg17,Pro21,Pro27,His35]-h-amylin (peptide)
peptide: {C20 diacid-γGlu}-KCNTATCATQRLAEFLRHSSPNFGAIPSSTNVGSHTY-NH2
modifications: disulfide 2-7
SMILES: CC[C@H](C)[C@H](NC(=O)[C@H](C)NC(=O)CNC(=O)[C@H](Cc1ccccc1)NC(=O)[C@H](CC(N)=O)NC(=O)[C@@H]1CCCN1C(=O)[C@H](CO)NC(=O)[C@H](CO)NC(=O)[C@H](Cc1c[nH]cn1)NC(=O)[C@H](CCCNC(=N)N)NC(=O)[C@H](CC(C)C)NC(=O)[C@H](Cc1ccccc1)NC(=O)[C@H](CCC(=O)O)NC(=O)[C@H](C)NC(=O)[C@H](CC(C)C)NC(=O)[C@H](CCCNC(=N)N)NC(=O)[C@H](CCC(N)=O)NC(=O)[C@@H](NC(=O)[C@H](C)NC(=O)[C@@H]1CSSC[C@H](NC(=O)[C@H](CCCCN)NC(=O)CC[C@H](NC(=O)CCCCCCCCCCCCCCCCCCC(=O)O)C(=O)O)C(=O)N[C@@H](CC(N)=O)C(=O)N[C@@H]([C@@H](C)O)C(=O)N[C@@H](C)C(=O)N[C@@H]([C@@H](C)O)C(=O)N1)[C@@H](C)O)C(=O)N1CCC[C@H]1C(=O)N[C@@H](CO)C(=O)N[C@@H](CO)C(=O)N[C@H](C(=O)N[C@@H](CC(N)=O)C(=O)N[C@H](C(=O)NCC(=O)N[C@@H](CO)C(=O)N[C@@H](Cc1c[nH]cn1)C(=O)N[C@H](C(=O)N[C@@H](Cc1ccc(O)cc1)C(N)=O)[C@@H](C)O)C(C)C)[C@@H](C)O
notes: also called compound 18
B2: N^α1-[(4S)-4-carboxy-4-(19-carboxynonadecanoylamino)butanoyl]-[Glu14,Arg17,Pro21,Pro27,Pro29]-h-amylin (peptide)
peptide: {C20 diacid-γGlu}-KCNTATCATQRLAEFLRHSSPNFGAIPSPTNVGSNTY-NH2
modifications: disulfide 2-7
SMILES: CC[C@H](C)[C@H](NC(=O)[C@H](C)NC(=O)CNC(=O)[C@H](Cc1ccccc1)NC(=O)[C@H](CC(N)=O)NC(=O)[C@@H]1CCCN1C(=O)[C@H](CO)NC(=O)[C@H](CO)NC(=O)[C@H](Cc1c[nH]cn1)NC(=O)[C@H](CCCNC(=N)N)NC(=O)[C@H](CC(C)C)NC(=O)[C@H](Cc1ccccc1)NC(=O)[C@H](CCC(=O)O)NC(=O)[C@H](C)NC(=O)[C@H](CC(C)C)NC(=O)[C@H](CCCNC(=N)N)NC(=O)[C@H](CCC(N)=O)NC(=O)[C@@H](NC(=O)[C@H](C)NC(=O)[C@@H]1CSSC[C@H](NC(=O)[C@H](CCCCN)NC(=O)CC[C@H](NC(=O)CCCCCCCCCCCCCCCCCCC(=O)O)C(=O)O)C(=O)N[C@@H](CC(N)=O)C(=O)N[C@@H]([C@@H](C)O)C(=O)N[C@@H](C)C(=O)N[C@@H]([C@@H](C)O)C(=O)N1)[C@@H](C)O)C(=O)N1CCC[C@H]1C(=O)N[C@@H](CO)C(=O)N1CCC[C@H]1C(=O)N[C@H](C(=O)N[C@@H](CC(N)=O)C(=O)N[C@H](C(=O)NCC(=O)N[C@@H](CO)C(=O)N[C@@H](CC(N)=O)C(=O)N[C@H](C(=O)N[C@@H](Cc1ccc(O)cc1)C(N)=O)[C@@H](C)O)C(C)C)[C@@H](C)O
notes: also called compound 37
B3: N^α1N^α1-[(4S)-4-carboxy-4-(19-carboxynonadecanoylamino)butanoyl]-[Glu14,Arg17,Pro21,Pro27,Glu35]-h-amylin (peptide)
peptide: {C20 diacid-γGlu}-KCNTATCATQRLAEFLRHSSPNFGAIPSSTNVGSETY-NH2
modifications: disulfide 2-7
SMILES: CC[C@H](C)[C@H](NC(=O)[C@H](C)NC(=O)CNC(=O)[C@H](Cc1ccccc1)NC(=O)[C@H](CC(N)=O)NC(=O)[C@@H]1CCCN1C(=O)[C@H](CO)NC(=O)[C@H](CO)NC(=O)[C@H](Cc1c[nH]cn1)NC(=O)[C@H](CCCNC(=N)N)NC(=O)[C@H](CC(C)C)NC(=O)[C@H](Cc1ccccc1)NC(=O)[C@H](CCC(=O)O)NC(=O)[C@H](C)NC(=O)[C@H](CC(C)C)NC(=O)[C@H](CCCNC(=N)N)NC(=O)[C@H](CCC(N)=O)NC(=O)[C@@H](NC(=O)[C@H](C)NC(=O)[C@@H]1CSSC[C@H](NC(=O)[C@H](CCCCN)NC(=O)CC[C@H](NC(=O)CCCCCCCCCCCCCCCCCCC(=O)O)C(=O)O)C(=O)N[C@@H](CC(N)=O)C(=O)N[C@@H]([C@@H](C)O)C(=O)N[C@@H](C)C(=O)N[C@@H]([C@@H](C)O)C(=O)N1)[C@@H](C)O)C(=O)N1CCC[C@H]1C(=O)N[C@@H](CO)C(=O)N[C@@H](CO)C(=O)N[C@H](C(=O)N[C@@H](CC(N)=O)C(=O)N[C@H](C(=O)NCC(=O)N[C@@H](CO)C(=O)N[C@@H](CCC(=O)O)C(=O)N[C@H](C(=O)N[C@@H](Cc1ccc(O)cc1)C(N)=O)[C@@H](C)O)C(C)C)[C@@H](C)O
notes: also called compound 22
B4: N^ε1-[(4S)-4-carboxy-4-(19-carboxynonadecanoylamino)butanoyl]-[Ala14,Arg17,Pro21,Pro27,Pro34]-h-amylin (peptide)
peptide: K([γGlu-C20 diacid])CNTATCATQRLAAFLRHSSPNFGAIPSSTNVGPNTY-NH2
modifications: disulfide 2-7; N-terminus assumed
SMILES: CC[C@H](C)[C@H](NC(=O)[C@H](C)NC(=O)CNC(=O)[C@H](Cc1ccccc1)NC(=O)[C@H](CC(N)=O)NC(=O)[C@@H]1CCCN1C(=O)[C@H](CO)NC(=O)[C@H](CO)NC(=O)[C@H](Cc1c[nH]cn1)NC(=O)[C@H](CCCNC(=N)N)NC(=O)[C@H](CC(C)C)NC(=O)[C@H](Cc1ccccc1)NC(=O)[C@H](C)NC(=O)[C@H](C)NC(=O)[C@H](CC(C)C)NC(=O)[C@H](CCCNC(=N)N)NC(=O)[C@H](CCC(N)=O)NC(=O)[C@@H](NC(=O)[C@H](C)NC(=O)[C@@H]1CSSC[C@H](NC(=O)[C@@H](N)CCCCNC(=O)CC[C@H](NC(=O)CCCCCCCCCCCCCCCCCCC(=O)O)C(=O)O)C(=O)N[C@@H](CC(N)=O)C(=O)N[C@@H]([C@@H](C)O)C(=O)N[C@@H](C)C(=O)N[C@@H]([C@@H](C)O)C(=O)N1)[C@@H](C)O)C(=O)N1CCC[C@H]1C(=O)N[C@@H](CO)C(=O)N[C@@H](CO)C(=O)N[C@H](C(=O)N[C@@H](CC(N)=O)C(=O)N[C@H](C(=O)NCC(=O)N1CCC[C@H]1C(=O)N[C@@H](CC(N)=O)C(=O)N[C@H](C(=O)N[C@@H](Cc1ccc(O)cc1)C(N)=O)[C@@H](C)O)C(C)C)[C@@H](C)O
notes: also called compound 94
B5: N^ε1-[(4S)-4-carboxy-4-(19-carboxynonadecanoylamino)butanoyl]-[Asp14,Arg17,Pro21,Pro27,Pro34,Glu35]-h-amylin (peptide)
peptide: K([γGlu-C20 diacid])CNTATCATQRLADFLRHSSPNFGAIPSSTNVGPETY-NH2
modifications: disulfide 2-7; N-terminus assumed
SMILES: CC[C@H](C)[C@H](NC(=O)[C@H](C)NC(=O)CNC(=O)[C@H](Cc1ccccc1)NC(=O)[C@H](CC(N)=O)NC(=O)[C@@H]1CCCN1C(=O)[C@H](CO)NC(=O)[C@H](CO)NC(=O)[C@H](Cc1c[nH]cn1)NC(=O)[C@H](CCCNC(=N)N)NC(=O)[C@H](CC(C)C)NC(=O)[C@H](Cc1ccccc1)NC(=O)[C@H](CC(=O)O)NC(=O)[C@H](C)NC(=O)[C@H](CC(C)C)NC(=O)[C@H](CCCNC(=N)N)NC(=O)[C@H](CCC(N)=O)NC(=O)[C@@H](NC(=O)[C@H](C)NC(=O)[C@@H]1CSSC[C@H](NC(=O)[C@@H](N)CCCCNC(=O)CC[C@H](NC(=O)CCCCCCCCCCCCCCCCCCC(=O)O)C(=O)O)C(=O)N[C@@H](CC(N)=O)C(=O)N[C@@H]([C@@H](C)O)C(=O)N[C@@H](C)C(=O)N[C@@H]([C@@H](C)O)C(=O)N1)[C@@H](C)O)C(=O)N1CCC[C@H]1C(=O)N[C@@H](CO)C(=O)N[C@@H](CO)C(=O)N[C@H](C(=O)N[C@@H](CC(N)=O)C(=O)N[C@H](C(=O)NCC(=O)N1CCC[C@H]1C(=O)N[C@@H](CCC(=O)O)C(=O)N[C@H](C(=O)N[C@@H](Cc1ccc(O)cc1)C(N)=O)[C@@H](C)O)C(C)C)[C@@H](C)O
B6: N^ε1-[(4S)-4-carboxy-4-(19-carboxynonadecanoylamino)butanoyl]-[Glu14,Arg17,Pro21,Pro27,Pro34,Pro37]-h-amylin (peptide)
peptide: K([γGlu-C20 diacid])CNTATCATQRLAEFLRHSSPNFGAIPSSTNVGPNTP-NH2
modifications: disulfide 2-7; N-terminus assumed
SMILES: CC[C@H](C)[C@H](NC(=O)[C@H](C)NC(=O)CNC(=O)[C@H](Cc1ccccc1)NC(=O)[C@H](CC(N)=O)NC(=O)[C@@H]1CCCN1C(=O)[C@H](CO)NC(=O)[C@H](CO)NC(=O)[C@H](Cc1c[nH]cn1)NC(=O)[C@H](CCCNC(=N)N)NC(=O)[C@H](CC(C)C)NC(=O)[C@H](Cc1ccccc1)NC(=O)[C@H](CCC(=O)O)NC(=O)[C@H](C)NC(=O)[C@H](CC(C)C)NC(=O)[C@H](CCCNC(=N)N)NC(=O)[C@H](CCC(N)=O)NC(=O)[C@@H](NC(=O)[C@H](C)NC(=O)[C@@H]1CSSC[C@H](NC(=O)[C@@H](N)CCCCNC(=O)CC[C@H](NC(=O)CCCCCCCCCCCCCCCCCCC(=O)O)C(=O)O)C(=O)N[C@@H](CC(N)=O)C(=O)N[C@@H]([C@@H](C)O)C(=O)N[C@@H](C)C(=O)N[C@@H]([C@@H](C)O)C(=O)N1)[C@@H](C)O)C(=O)N1CCC[C@H]1C(=O)N[C@@H](CO)C(=O)N[C@@H](CO)C(=O)N[C@H](C(=O)N[C@@H](CC(N)=O)C(=O)N[C@H](C(=O)NCC(=O)N1CCC[C@H]1C(=O)N[C@@H](CC(N)=O)C(=O)N[C@H](C(=O)N1CCC[C@H]1C(N)=O)[C@@H](C)O)C(C)C)[C@@H](C)O

Each binder was assayed against T1, human calcitonin receptor (assay: cell-based or functional assay).

Binder	Ratio hCT/hAmylin funct.	hCTR funct. EC50 (pM)
B1	4.8	
B2	4	
B3	3.8	
B4	4.5	
B5	3.9	1120 pM
B6	0.9	

The binders below were run against T2, human amylin 3(a) receptor (human …) (assay: cell-based or functional assay).

Binder	hAmylin-R funct. EC50 (pM)
B1	154 pM
B2	92 pM
B3	270 pM
B4	70 pM
B5	288 pM
B6	105 pM
